Assay results reported in IntAct's records for PubMed 29039417.

B1: Protein PTHB1 (Homo sapiens), Q3SYG4 (parent)
chain: MSLFKARDWWSTILGDKEEFDQGCLCLANVDNSGNGQDKIIVGSFMGYLRIFSPHPAKTGDGAQAEDLLLEVDLRDPVLQVEVGKFVSGTEMLHLAVLHSRKLCVYSVSGTLGNVEHGNQCQMKLMYEHNLQRTACNMTYGSFGGVKGRDLICIQSMDGMLMVFEQESYAFGRFLPGFLLPGPLAYSSRTDSFLTVSSCQQVESYKYQVLAFATDADKRQETEQQKLGSGKRLVVDWTLNIGEQALDICIVSFNQSASSVFVLGERNFFCLKDNGQIRFMKKLDWSPSCFLPYCSVSEGTINTLIGNHNNMLHIYQDVTLKWATQLPHIPVAVRVGCLHDLKGVIVTLSDDGHLQCSYLGTDPSLFQAPNVQSRELNYDELDVEMKELQKIIKDVNKSQGVWPMTEREDDLNVSVVVSPNFDSVSQATDVEVGTDLVPSVTVKVTLQNRVILQKAKLSVYVQPPLELTCDQFTFEFMTPDLTRTVSFSVYLKRSYTPSELEGNAVVSYSRPTDRNPDGIPRVIQCKFRLPLKLICLPGQPSKTASHKITIDTNKSPVSLLSLFPGFASQSDDDQVNVMGFHFLGGARITVLASKTSQRYRIQSEQFEDLWLITNELILRLQEYFEKQGVKDFACSFSGSIPLQEYFELIDHHFELRINGEKLEELLSERAVQFRAIQRRLLARFKDKTPAPLQHLDTLLDGTYKQVIALADAVEENQGNLFQSFTRLKSATHLVILLIALWQKLSADQVAILEAAFLPLQEDTQELGWEETVDAAISHLLKTCLSKSSKEQALNLNSQLNIPKDTSQLKKHITLLCDRLSKGGRLCLSTDAAAPQTMVMPGGCTTIPESDLEERSVEQDSTELFTNHRHLTAETPRPEVSPLQGVSE
partner: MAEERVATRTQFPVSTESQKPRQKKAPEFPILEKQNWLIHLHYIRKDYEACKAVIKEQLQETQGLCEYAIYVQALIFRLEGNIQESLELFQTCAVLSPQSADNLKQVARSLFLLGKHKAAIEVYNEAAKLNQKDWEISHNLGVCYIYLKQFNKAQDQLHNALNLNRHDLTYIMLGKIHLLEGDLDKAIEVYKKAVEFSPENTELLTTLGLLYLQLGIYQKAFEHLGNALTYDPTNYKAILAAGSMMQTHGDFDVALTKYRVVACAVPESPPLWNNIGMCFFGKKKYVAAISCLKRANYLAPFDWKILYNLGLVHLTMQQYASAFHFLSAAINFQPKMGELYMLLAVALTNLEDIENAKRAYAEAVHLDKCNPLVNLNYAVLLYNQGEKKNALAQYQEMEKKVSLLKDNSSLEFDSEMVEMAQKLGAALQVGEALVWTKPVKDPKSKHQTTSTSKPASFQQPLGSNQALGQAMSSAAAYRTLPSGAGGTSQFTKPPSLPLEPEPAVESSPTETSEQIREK

Variants of: B1
Conditions: with bbs4_human BBS4, Q96RK4

Variant | effect of a mutation on the interaction
S555A | with no effect
S555K | with no effect
S555E | with no effect
P540K | with no effect
P540A | with no effect
P540E | with no effect
D571E | with no effect
D571A | with no effect
D571K | with no effect
V590K | with no effect
V590E | with no effect
V590A | with no effect
D551A | with no effect
D551K | with no effect
D551E | with no effect
S541A | with no effect
S541K | with no effect
S541E | with no effect
L591A | with no effect
L591E | with no effect
L591K | with no effect
I548E | with no effect
I548K | with no effect

Variant | effect of a mutation on the interaction
I548A | with no effect
Q539A | with no effect
Q539E | with no effect
Q539K | with no effect
L583E | with no effect
L583K | with no effect
L583A | with no effect
T552K | with no effect
T552A | with no effect
T552E | with no effect
Q574E | with no effect
Q574R | disrupting interaction strength
Q574A | with no effect
Q574K | with no effect
N576K | with no effect
N576E | with no effect
N576A | with no effect
G538K | with no effect
G538E | with no effect
G538A | with no effect
P537E | with no effect
P537A | with no effect
P537K | with no effect

Variant | effect of a mutation on the interaction
P537L | disrupting interaction strength
V557K | with no effect
V557E | with no effect
V557A | with no effect
T549E | with no effect
T549A | with no effect
T549K | with no effect
I588K | with no effect
I588A | with no effect
I588E | with no effect
H581A | with no effect
H581E | with no effect
H581K | with no effect
K542A | with no effect
K542E | with no effect
K547E | with no effect
K547A | with no effect
L536K | with no effect
L536E | with no effect
L536A | with no effect
F563A | with no effect
F563S | disrupting interaction strength
F563K | with no effect

Variant | effect of a mutation on the interaction
F563E | with no effect
F580A | with no effect
F580K | with no effect
F580E | with no effect
G584A | with no effect
G584E | disrupting interaction strength
G584K | with no effect
I534K | with no effect
I534E | with no effect
S561K | with no effect
S561E | with no effect
S561A | with no effect
T543E | with no effect
T543A | with no effect
T543K | with no effect
S558E | with no effect
S558K | with no effect
S558A | with no effect
A586K | with no effect
A586E | with no effect
D573K | with no effect
D573A | with no effect
D573E | with no effect

Variant | effect of a mutation on the interaction
N553A | with no effect
N553E | with no effect
N553K | with no effect
V577A | with no effect
V577K | with no effect
V577E | with no effect
A544K | with no effect
A544E | with no effect
L559K | with no effect
L559E | with no effect
L559F | disrupting interaction strength
L559A | with no effect
A592E | with no effect
A592K | with no effect
F582A | with no effect
F582E | with no effect
F582K | with no effect
K554A | with no effect
K554S | disrupting interaction strength
K554E | with no effect
S545K | with no effect
S545E | with no effect
S545A | with no effect

Variant | effect of a mutation on the interaction
L562K | with no effect
L562E | with no effect
L562A | with no effect
G579A | with no effect
G579E | with no effect
G579K | with no effect
H546A | with no effect
H546K | with no effect
H546E | with no effect
C535E | with no effect
C535K | with no effect
C535A | with no effect
G565E | with no effect
G565K | with no effect
G565A | with no effect
G565R | disrupting interaction strength
M578E | with no effect
M578K | with no effect
M578A | with no effect
S593A | with no effect
T589E | with no effect
T589K | with no effect
T589I | disrupting interaction strength

Variant | effect of a mutation on the interaction
T589A | disrupting interaction strength
P564S | disrupting interaction strength
P564K | with no effect
P564E | with no effect
P564A | with no effect
S568A | with no effect
S568E | with no effect
S568K | with no effect
Q569E | with no effect
Q569A | with no effect
Q569R | disrupting interaction strength
Q569K | with no effect
F566E | with no effect
F566K | with no effect
F566A | with no effect
G585A | with no effect
G585E | with no effect
G585K | with no effect
A567E | with no effect
A567K | with no effect
P556E | with no effect
P556A | with no effect
P556K | with no effect

Variant | effect of a mutation on the interaction
D572E | with no effect
D572A | with no effect
D572N | disrupting interaction strength
D572K | with no effect
S570A | with no effect
S570E | with no effect
S570K | with no effect
L560A | with no effect
L560K | with no effect
L560E | with no effect
V575E | with no effect
V575K | with no effect
V575A | with no effect
I550E | with no effect
I550A | with no effect
I550K | with no effect
R587T | disrupting interaction strength
R587A | with no effect
R587K | with no effect
R587E | with no effect
